Laboratory results from article PMC10512297, “The Penicillium chrysogenum tom1 Gene a Major Target of Transcription Factor MAT1-1-1 Encodes a Nuclear Protein Involved in Sporulation”.

Tests used:
GST-MAT1-2-1 = target: T1, GST-MAT1-2-1 (Penicillium chrysogenum PC3, UniProt B1GVC0 1-303); assay: EMSA; 7 uM protein; more protein needed than for GST-MAT1-1-1; self-competition by unlabelled tom1-2; EMSA: 20 ul reaction, 20 min at room temperature, native 4% polyacrylamide gel, 120 V 2-3 h; buffer, salt and pH not given (Ramsak et al. 2021 protocol); conditions: protein: recombinant; tags: N-terminal GST; label: 32P (probe); blunt
T1 sequence: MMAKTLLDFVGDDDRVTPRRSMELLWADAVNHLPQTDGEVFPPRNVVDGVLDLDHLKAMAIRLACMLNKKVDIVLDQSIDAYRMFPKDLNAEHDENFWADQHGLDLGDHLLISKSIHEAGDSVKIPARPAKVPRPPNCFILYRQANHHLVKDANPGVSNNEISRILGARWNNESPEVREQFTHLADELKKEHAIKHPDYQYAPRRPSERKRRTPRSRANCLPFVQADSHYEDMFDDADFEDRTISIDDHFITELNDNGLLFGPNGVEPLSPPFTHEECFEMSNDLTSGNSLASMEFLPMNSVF

[1] = target: T2, GST-MAT1-1-1;GST-MAT1-2-1 (Penicillium chrysogenum;Penicillium …, UniProt B1GVB9;B1GVC0 1-342;1-303, |); assay: EMSA; 4 uM each protein; slower migrating complex; EMSA: 20 ul reaction, 20 min at room temperature, native 4% polyacrylamide gel, 120 V 2-3 h; buffer, salt and pH not given (Ramsak et al. 2021 protocol); conditions: protein: recombinant;recombinant; tags: N-terminal GST;N-terminal GST; label: 32P (probe); blunt
T2 sequence 1: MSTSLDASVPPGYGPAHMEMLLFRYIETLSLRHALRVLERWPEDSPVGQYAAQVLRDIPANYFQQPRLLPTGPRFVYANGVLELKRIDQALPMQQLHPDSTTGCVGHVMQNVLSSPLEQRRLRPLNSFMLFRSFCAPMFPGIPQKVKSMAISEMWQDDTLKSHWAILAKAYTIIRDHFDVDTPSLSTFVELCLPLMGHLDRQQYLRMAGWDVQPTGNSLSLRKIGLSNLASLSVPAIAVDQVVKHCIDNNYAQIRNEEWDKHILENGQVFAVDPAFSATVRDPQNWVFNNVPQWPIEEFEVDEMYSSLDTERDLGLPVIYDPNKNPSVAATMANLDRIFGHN
T2 sequence 2: T1 sequence

GST-MAT1-1-1 = target: T3, GST-MAT1-1-1 (Penicillium chrysogenum, UniProt B1GVB9 1-342); assay: EMSA; 2.5 uM protein; self-competition by unlabelled tom1-2; EMSA: 20 ul reaction, 20 min at room temperature, native 4% polyacrylamide gel, 120 V 2-3 h; buffer, salt and pH not given (Ramsak et al. 2021 protocol); conditions: protein: recombinant; tags: N-terminal GST; chain copies: 2; label: 32P (probe); blunt
T3 sequence: T2 sequence 1

[2] = target: T4, GST-MAT1-1-1;MAT1-2-1 (GST removed) (Penicillium chrysogenum;Penicillium …, UniProt B1GVB9;B1GVC0 1-342;1-303, |); assay: EMSA; 4 uM each protein; complex faster than with GST-MAT1-2-1; EMSA: 20 ul reaction, 20 min at room temperature, native 4% polyacrylamide gel, 120 V 2-3 h; buffer, salt and pH not given (Ramsak et al. 2021 protocol); conditions: protein: recombinant;recombinant; tags: N-terminal GST;none (GST removed by TEV protease); label: 32P (probe); blunt
T4 sequence 1: T2 sequence 1
T4 sequence 2: T1 sequence

Measured: binding result

B1: tom1-2 (dsDNA)
DNA 1: TCACGTGATCTCTATTGAGAACAATAGAA
DNA 2: TTCTATTGTTCTCAATAGAGATCACGTGA
binds: all assays above
